In paper PMC7865324:

Biological target: citrate synthase (CS) from porcine heart (porcine) (UniProt P00889)
Sequence of UniProt P00889 (P00889 28-464): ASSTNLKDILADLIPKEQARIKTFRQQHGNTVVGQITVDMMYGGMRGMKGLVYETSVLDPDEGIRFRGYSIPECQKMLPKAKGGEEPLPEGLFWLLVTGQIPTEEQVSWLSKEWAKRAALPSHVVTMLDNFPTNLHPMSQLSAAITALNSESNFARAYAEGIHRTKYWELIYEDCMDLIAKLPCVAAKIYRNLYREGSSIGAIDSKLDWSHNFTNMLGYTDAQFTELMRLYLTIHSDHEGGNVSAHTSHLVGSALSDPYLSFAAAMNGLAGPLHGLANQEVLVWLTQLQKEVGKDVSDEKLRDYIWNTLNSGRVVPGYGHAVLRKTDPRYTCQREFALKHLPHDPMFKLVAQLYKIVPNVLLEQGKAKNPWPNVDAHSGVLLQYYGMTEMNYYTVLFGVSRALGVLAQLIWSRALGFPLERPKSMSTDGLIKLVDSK

citrate synthase thermal aggregation assay (OD360, 42 °C, 1 h): percent of CS kept soluble, ZnJ6:CS 0.1:1 to 10:1: 86%
Substance: recombinant ZnJ6 (Cre06.g251716.t1.2) fused to the streptavidin-binding peptide (SBP) tag (natural protein)
